The results in this text go back to patent US8101390B2, “Mutant-type acetyltransferase Mpr1” (National University Corporation Nara Institute of Science …, priority 2006, dated 2012).

For data set [1], the target named is T1, Saccharomyces cerevisiae N-acetyltransferase Mpr1, wild-type, SEQ ID NO:1 (Saccharomyces cerevisiae, UniProt E9P8D2).
T1 sequence (E9P8D2 1-229): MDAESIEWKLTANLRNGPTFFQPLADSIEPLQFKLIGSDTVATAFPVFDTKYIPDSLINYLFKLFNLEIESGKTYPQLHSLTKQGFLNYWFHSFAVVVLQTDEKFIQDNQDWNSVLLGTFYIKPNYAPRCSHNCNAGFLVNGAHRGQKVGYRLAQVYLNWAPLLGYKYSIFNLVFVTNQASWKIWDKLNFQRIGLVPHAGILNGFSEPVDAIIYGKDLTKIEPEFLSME
Nature of the data set: DTNB enzymatic activity (kinetics) of purified wild-type Mpr1. The class given is biochemical. The conditions noted are these: 30° C., […]-0.15 mM acetyl-CoA. How it is done:
(§1) JM109 was inoculated in 5 ml of M9CA (CA:0.2%) medium and was cultured at. 37° C. until OD600 of the culture reached 0.7. IPTG was added to the medium to the final concentration of 0.1 mM and cells were further cultured at 18° C. for 18 hours. After the culture, cells were ice-cooled and were collected by centrifugation (8000 rpm, 5 min). Cells were washed by the addition of Lysis buffer. After centrifugation (8000 rpm, 5 min), 5 ml of Lysis buffer was added and cells were suspended therein. The suspension was subjected to ultrasonic disintegrator and was centrifuged (15000 rpm, 10 min). The supernatant was applied onto Ni-NTA column (2 ml of QIAGEN resin suspension) equilibrated with Lysis buffer. The flow-through fraction was collected and the column was washed with 10 ml of wash buffer and then fractions were collected. Further, fractions eluted with 5 ml of elution buffer were used as the purified enzyme.
(§2) Enzymatic activities were measured for the purified wild-type Mpr1 and the purified K63R, F65L/L117V, F65L and L117V-mutant-type Mpr1s. The enzymatic activities were measured according to 5,5′-dithiobis (2-nitrobenzoic acid) (DTNB) method.

In data set [2] the target is T2, Saccharomyces cerevisiae N-acetyltransferase Mpr1 variant L117V (leucine 117 to valine), SEQ ID NO:9 (Saccharomyces cerevisiae, UniProt E9P8D2, L117V).
T2 sequence (E9P8D2 1-229 L117V): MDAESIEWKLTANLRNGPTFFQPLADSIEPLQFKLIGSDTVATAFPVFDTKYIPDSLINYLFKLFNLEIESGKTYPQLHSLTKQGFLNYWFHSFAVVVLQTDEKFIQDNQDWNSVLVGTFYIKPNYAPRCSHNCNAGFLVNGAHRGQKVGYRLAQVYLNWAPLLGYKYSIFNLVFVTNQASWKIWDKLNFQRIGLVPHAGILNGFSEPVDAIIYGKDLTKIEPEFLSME
Nature of the data set: DTNB enzymatic activity (kinetics) of purified L117V mutant-type Mpr1. It counts as biochemical. The conditions noted are these: vs wild-type. How it is done:
as §1, §2

The target in data set [3] is T3, Saccharomyces cerevisiae N-acetyltransferase Mpr1 variant K63R (lysine 63 to arginine), SEQ ID NO:7 (Saccharomyces cerevisiae, UniProt E9P8D2, K63R).
T3 sequence (E9P8D2 1-229 K63R): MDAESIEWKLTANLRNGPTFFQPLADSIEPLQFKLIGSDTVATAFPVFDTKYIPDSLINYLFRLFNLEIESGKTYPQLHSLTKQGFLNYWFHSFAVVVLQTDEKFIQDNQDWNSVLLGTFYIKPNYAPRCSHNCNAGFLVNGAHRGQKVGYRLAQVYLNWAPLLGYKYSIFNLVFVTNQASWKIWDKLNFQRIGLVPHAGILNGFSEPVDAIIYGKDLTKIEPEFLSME
Nature of the data set: DTNB enzymatic activity (kinetics) of purified K63R mutant-type Mpr1. It counts as biochemical. The conditions noted are these: vs wild-type. How it is done: as §1, §2

Data set [4] has as its target T4, Saccharomyces cerevisiae N-acetyltransferase Mpr1 variant F65L (phenylalanine 65 to leucine), SEQ ID NO:8 (Saccharomyces cerevisiae, UniProt E9P8D2, F65L).
T4 sequence (E9P8D2 1-229 F65L): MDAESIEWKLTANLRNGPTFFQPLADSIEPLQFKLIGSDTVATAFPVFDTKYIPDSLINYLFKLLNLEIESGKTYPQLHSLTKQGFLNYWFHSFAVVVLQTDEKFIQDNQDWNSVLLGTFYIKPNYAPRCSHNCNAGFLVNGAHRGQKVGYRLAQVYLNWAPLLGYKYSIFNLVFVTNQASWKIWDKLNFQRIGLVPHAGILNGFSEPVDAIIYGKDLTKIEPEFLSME
Nature of the data set: DTNB enzymatic activity (kinetics) of purified F65L mutant-type Mpr1. The class given is biochemical. The note with it: vs wild-type. How it is done: as §1, §2

Substrate in data set [5]: CC(=O)SCCNC(=O)CCNC(=O)[C@H](O)C(C)(C)COP(=O)(O)OP(=O)(O)OC[C@H]1O[C@@H](n2cnc3c(N)ncnc32)[C@H](O)[C@@H]1OP(=O)(O)O
Nature of the data set: DTNB enzymatic activity (kinetics) of purified L117V mutant-type Mpr1. It counts as biochemical, Saccharomyces cerevisiae. The conditions noted are these: other: L117V, 30° C., DTNB method, […]-0.15 mM acetyl-CoA.

Substrate in data set [6]: O=C(O)[C@@H]1CCN1
The data set is described as above. The class given is biochemical, Saccharomyces cerevisiae. The conditions noted are these: other: L117V, 30° C., DTNB method, 0.5 mM-5 mM AZC.

Substrate in data set [7]: CC(=O)SCCNC(=O)CCNC(=O)[C@H](O)C(C)(C)COP(=O)(O)OP(=O)(O)OC[C@H]1O[C@@H](n2cnc3c(N)ncnc32)[C@H](O)[C@@H]1OP(=O)(O)O
Nature of the data set: DTNB enzymatic activity (kinetics) of purified F65L mutant-type Mpr1. The class given is biochemical, Saccharomyces cerevisiae. The conditions noted are these: other: F65L, 30° C., DTNB method, […]-0.15 mM acetyl-CoA.

Substrate in data set [8]: O=C(O)[C@@H]1CCN1
Described as above. The class given is biochemical, Saccharomyces cerevisiae. The note with it: other: F65L, 30° C., DTNB method, 0.5 mM-5 mM AZC.

Substrate in data set [9]: O=C(O)[C@@H]1CCN1
Nature of the data set: DTNB enzymatic activity (kinetics) of purified wild-type Mpr1. The class given is biochemical, Saccharomyces cerevisiae. The conditions noted are these: other: wild-type, 30° C., DTNB method, 0.5 mM-5 mM AZC.

Substrate in data set [10]: CC(=O)SCCNC(=O)CCNC(=O)[C@H](O)C(C)(C)COP(=O)(O)OP(=O)(O)OC[C@H]1O[C@@H](n2cnc3c(N)ncnc32)[C@H](O)[C@@H]1OP(=O)(O)O
The data set is described as follows: DTNB enzymatic activity (kinetics) of purified F65L/L117V mutant-type Mpr1. It counts as biochemical, Saccharomyces cerevisiae. The conditions noted are these: other: F65L/L117V, 30° C., DTNB method, […]-0.15 mM acetyl-CoA.

Substrate in data set [11]: O=C(O)[C@@H]1CCN1
The description is as above. It counts as biochemical, Saccharomyces cerevisiae. The conditions noted are these: other: F65L/L117V, 30° C., DTNB method, 0.5 mM-5 mM AZC.

Substrate in data set [12]: CC(=O)SCCNC(=O)CCNC(=O)[C@H](O)C(C)(C)COP(=O)(O)OP(=O)(O)OC[C@H]1O[C@@H](n2cnc3c(N)ncnc32)[C@H](O)[C@@H]1OP(=O)(O)O
Nature of the data set: DTNB enzymatic activity (kinetics) of purified K63R mutant-type Mpr1. The note with it: other: K63R, 30° C., DTNB method, […]-0.15 mM acetyl-CoA. It counts as biochemical, Saccharomyces cerevisiae.

Substrate in data set [13]: O=C(O)[C@@H]1CCN1
The description is as above. The conditions noted are these: other: K63R, 30° C., DTNB method, 0.5 mM-5 mM AZC. The class given is biochemical, Saccharomyces cerevisiae.

With `CC(=O)SCCNC(=O)CCNC(=O)[C@H](O)C(C)(C)COP(=O)(O)OP(=O)(O)OC[C@H]1O[C@@H](n2cnc3c(N)ncnc32)[C@H](O)[C@@H]1OP(=O)(O)O` [Acetyl-CoA, acetyl-CoA], in [1], the “Vmax (Acetyl-CoA)” value came to 64.5 ± 1.29 U/mg and the “kcat (Acetyl-CoA)” value amounted to 31.2 ± 0.63 s⁻¹. For the same molecule, the “Km value for acetyl-CoA, change in words” value in [2] is recorded as “decreased”. Also, in [3], the “Km value, change in words” value was “decreased”.
Consider `O=C(O)[C@@H]1CCN1` [AZC, azetidine-2-calboxylate], for which the “Km value, change in words” value in [3] is “decreased”. The “Km value for AZC, change in words” value in [4] is “decreased”.

B1: Saccharomyces cerevisiae N-acetyltransferase Mpr1 variant L117V (leucine 117 to valine), SEQ ID NO:9 (Saccharomyces cerevisiae; L117V) (protein)
chain: MDAESIEWKLTANLRNGPTFFQPLADSIEPLQFKLIGSDTVATAFPVFDTKYIPDSLINYLFKLFNLEIESGKTYPQLHSLTKQGFLNYWFHSFAVVVLQTDEKFIQDNQDWNSVLVGTFYIKPNYAPRCSHNCNAGFLVNGAHRGQKVGYRLAQVYLNWAPLLGYKYSIFNLVFVTNQASWKIWDKLNFQRIGLVPHAGILNGFSEPVDAIIYGKDLTKIEPEFLSME
Regarding B1, in [5], the Km (usually the substrate concentration at which the rate is half of its maximum) was 7.63 ± 2.03 ↓ μM; the Vmax came out at 79.4 ± 1.54 U/mg; the kcat – broadly, the number of substrate molecules converted per active site and unit of time at saturation – is 38.4 ± 0.74 s⁻¹; the kcat/Km (in general, the turnover number divided by the Michaelis constant) amounted to 5e+06 ± 1.17e+06 M⁻¹ s⁻¹. In [6], the Km worked out at 1400 ± 130 µM, the Vmax is 98.5 ± 3.34 U/mg, the kcat amounted to 47.6 ± 1.61 s⁻¹ and the kcat/Km was 32500 ± 2580 M⁻¹ s⁻¹.

B2: Saccharomyces cerevisiae N-acetyltransferase Mpr1 variant F65L (phenylalanine 65 to leucine), SEQ ID NO:8 (Saccharomyces cerevisiae; F65L) (protein)
chain: MDAESIEWKLTANLRNGPTFFQPLADSIEPLQFKLIGSDTVATAFPVFDTKYIPDSLINYLFKLLNLEIESGKTYPQLHSLTKQGFLNYWFHSFAVVVLQTDEKFIQDNQDWNSVLLGTFYIKPNYAPRCSHNCNAGFLVNGAHRGQKVGYRLAQVYLNWAPLLGYKYSIFNLVFVTNQASWKIWDKLNFQRIGLVPHAGILNGFSEPVDAIIYGKDLTKIEPEFLSME
As to B2, in [7], the Km worked out at 10.3 ± 1.46 µM, the Vmax amounted to 63.7 ± 3.34 U/mg, the kcat is 30.8 ± 0.61 s⁻¹ and the kcat/Km amounted to 2.9e+06 M⁻¹ s⁻¹. In addition, in [8], the Km is on record as 0.7 ± 0.15 ↓ mM, the Vmax is 65.0 ± 2.74 U/mg, the kcat is 31.4 ± 1.33 s⁻¹ and the kcat/Km is 45500 ± 8630 M⁻¹ s⁻¹.

B3: Saccharomyces cerevisiae N-acetyltransferase Mpr1, wild-type, SEQ ID NO:1 (Saccharomyces cerevisiae) (protein)
chain: MDAESIEWKLTANLRNGPTFFQPLADSIEPLQFKLIGSDTVATAFPVFDTKYIPDSLINYLFKLFNLEIESGKTYPQLHSLTKQGFLNYWFHSFAVVVLQTDEKFIQDNQDWNSVLLGTFYIKPNYAPRCSHNCNAGFLVNGAHRGQKVGYRLAQVYLNWAPLLGYKYSIFNLVFVTNQASWKIWDKLNFQRIGLVPHAGILNGFSEPVDAIIYGKDLTKIEPEFLSME
B3: in [9], the Km came to 1600 ± 90 µM, the Vmax turned out to be 74.76 ± 1.27 U/mg, the kcat is 36.1 ± 1.53 s⁻¹ and the kcat/Km was 22400 M⁻¹ s⁻¹.

B4: Saccharomyces cerevisiae N-acetyltransferase Mpr1 variant F65L/L117V, SEQ ID NO:10 (Saccharomyces cerevisiae; F65L/L117V) (protein)
chain: MDAESIEWKLTANLRNGPTFFQPLADSIEPLQFKLIGSDTVATAFPVFDTKYIPDSLINYLFKLLNLEIESGKTYPQLHSLTKQGFLNYWFHSFAVVVLQTDEKFIQDNQDWNSVLVGTFYIKPNYAPRCSHNCNAGFLVNGAHRGQKVGYRLAQVYLNWAPLLGYKYSIFNLVFVTNQASWKIWDKLNFQRIGLVPHAGILNGFSEPVDAIIYGKDLTKIEPEFLSME
As for B4, in [10], the Km came out at 13.3 ± 1.67 µM, the Vmax came to 64.9 ± 0.36 U/mg, the kcat came to 31.4 ± 0.17 s⁻¹ and the kcat/Km amounted to 2.3e+06 M⁻¹ s⁻¹. In addition, in data set [11], the Km turned out to be 1800 ± 190 µM, the Vmax came to 79.4 ± 1.05 U/mg, the kcat came to 38.4 ± 2.18 s⁻¹ and the kcat/Km was found to be 21300 M⁻¹ s⁻¹.

B5: Saccharomyces cerevisiae N-acetyltransferase Mpr1 variant K63R (lysine 63 to arginine), SEQ ID NO:7 (Saccharomyces cerevisiae; K63R) (protein)
chain: MDAESIEWKLTANLRNGPTFFQPLADSIEPLQFKLIGSDTVATAFPVFDTKYIPDSLINYLFRLFNLEIESGKTYPQLHSLTKQGFLNYWFHSFAVVVLQTDEKFIQDNQDWNSVLLGTFYIKPNYAPRCSHNCNAGFLVNGAHRGQKVGYRLAQVYLNWAPLLGYKYSIFNLVFVTNQASWKIWDKLNFQRIGLVPHAGILNGFSEPVDAIIYGKDLTKIEPEFLSME
B5: in [12], the Km is 8.0 ± 2.84 ↓ μM, the Vmax turned out to be 62.4 ± 1.94 U/mg, the kcat came out at 26.5 ± 0.94 s⁻¹ and the kcat/Km is 3.3e+06 ± 1.09e+06 M⁻¹ s⁻¹. Moreover, in [13], the Km was 1.2 ± 0.17 ↓ mM, the Vmax came to 72 ± 2.98 U/mg, the kcat was 30.6 ± 1.44 s⁻¹ and the kcat/Km was 24800 M⁻¹ s⁻¹.
